Test results from doi:10.1101/2023.11.06.565731.

Legend:
[1] = target: mouse α-synuclein pre-formed fibrils (mouse) (UniProt O55042); experiment: other fluorescence titration
[2] = target: mouse α-synuclein type B* oligomers (mouse) (UniProt O55042); experiment: other fluorescence titration

Question: Which results are given for “BODIPY630/650-labelled PSMα3 peptide probe P1”?
Answer: Kd [1]: 1400 nM; fold increase of the emission peak intensity [1]: 16 fold; fold increase of the excitation peak intensity [1]: 7.6 fold; fold increase of the emission peak intensity [2]: 3 fold; fold increase of the excitation peak intensity [2]: 1.8 fold
